What was measured:
[1] = biological target: bat star (Patiria miniata) DGCR8 heme-binding domain, HBD-His6 (Patiria miniata (bat star)); test: SEC; size exclusion chromatography, last step of the purification; SEC buffer 400 mM NaCl, 20 mM Tris pH 8.0, 1 mM DTT; elution volumes compared (bat star HBD 13.8 mL; human HBD dimer; human NC9 monomer 2.6 mL later)
[2] = biological target: the molecule itself; test: as above

stoichiometry N [1]	Molecule	stoichiometry N [2]
2	bat star (Patiria miniata) DGCR8 heme-binding domain, HBD-His6 (domain or fragment)	
	human DGCR8 heme-binding domain, HBD-His6 (domain or fragment, UniProt Q8WYQ5 276-498, looked up, Dimer of 54 kDa; also called human HBD; human HBD-His6; not shown: His6, C-terminal, kept) DGETSVQPMMTKIKTVLKSRGRPPTEPLPDGWIMTFHNSGVPVYLHRESRVVTWSRPYFLGTGSIRKHDPPLSSIPCLHYKKMKDNEEREQSSDLTPSGDVSPVKPLSRSAELEFPLDEPDSMGADPGPPDEKDPLGAEAAPGALGQVKAKVEVCKDESVDLEEFRSYLEKRFDFEQVTVKKFRTWAERRQFNREMKRKQAESERPILPANQKLITLSVQDAP	2
